Data from publication PMC3078985.

Target: CLS (C-terminal fragment of human L-selectin with its entire transmembrane and cytoplasmic domains) (human)
Test: AUC

pKd (molar fraction units): 1.49
Substance: CLS (C-terminal fragment of human L-selectin with its entire transmembrane and cytoplasmic domains) (domain or fragment)
